Biological target: CXC chemokine receptor (CXCR) 4 on THP-1 cells (human (endogenous in THP-1)) (UniProt P61073)
Sequence (P61073 whole entry): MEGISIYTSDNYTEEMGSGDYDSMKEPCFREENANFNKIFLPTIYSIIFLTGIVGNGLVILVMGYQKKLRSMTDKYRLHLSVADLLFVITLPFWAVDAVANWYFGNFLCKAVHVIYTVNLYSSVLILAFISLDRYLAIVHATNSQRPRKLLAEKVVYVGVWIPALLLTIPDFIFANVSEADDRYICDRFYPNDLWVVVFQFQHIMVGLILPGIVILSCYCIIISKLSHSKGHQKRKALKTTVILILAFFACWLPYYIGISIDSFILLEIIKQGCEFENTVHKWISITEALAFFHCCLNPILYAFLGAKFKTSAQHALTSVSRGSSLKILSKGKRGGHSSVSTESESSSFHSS

LogIC50 (pM), reduction of cAMP levels in forskolin-stimulated THP-1 cells	bottom plateau (%), reduction of cAMP levels in forskolin-stimulated THP-1 cells	Substance
2.3 log(pM)	54.1%	Ub(1–74)NN (from UniProt P0CG47 1-76) (ligand)
	42.8%	Ub(1–74)RR (from UniProt P0CG47 1-76) (ligand)
	46.7%	Ub(1–74)VV (from UniProt P0CG47 1-76) (ligand)
